Reference: article PMC7156367, “Cell surface processing of the P1 adhesin of Mycoplasma pneumoniae identifies novel domains that bind host molecules” (Scientific Reports, 2020)
Entries after “also recorded” stand apart in the source; their conditions may differ. Where no end group is shown, it is not given here. The star is where a group is joined. Biotin = O=C1N[C@H]2[C@H](CS[C@H]2CCCCC(=O)*)N1

Tests used:
[1] = target: T1, Human vitronectin (human, UniProt P04004 20-478); assay: ELISA; 15 µg/ml of C-terminal P1 fragment bound to wells, incubated with host protein at several concentrations; detected with antiserum against the host protein, absorbance at 450 nm; settings: both partners purified
T1 construct: vitronectin, human, Sigma SRP3186; source: bought: Sigma (Code SRP3186)

[2] = target: T2, Fetuin, fluorescent labelled (microscale thermophoresis) (bovine, UniProt P12763 19-359, fluorescent label); assay: MST; fluorescent labelled host protein, peptide titrated; thermophoresis 30 s, 40%, 60% and 80% MST power; settings: both partners purified
T2 construct: fetuin
T2 sequence (looked up): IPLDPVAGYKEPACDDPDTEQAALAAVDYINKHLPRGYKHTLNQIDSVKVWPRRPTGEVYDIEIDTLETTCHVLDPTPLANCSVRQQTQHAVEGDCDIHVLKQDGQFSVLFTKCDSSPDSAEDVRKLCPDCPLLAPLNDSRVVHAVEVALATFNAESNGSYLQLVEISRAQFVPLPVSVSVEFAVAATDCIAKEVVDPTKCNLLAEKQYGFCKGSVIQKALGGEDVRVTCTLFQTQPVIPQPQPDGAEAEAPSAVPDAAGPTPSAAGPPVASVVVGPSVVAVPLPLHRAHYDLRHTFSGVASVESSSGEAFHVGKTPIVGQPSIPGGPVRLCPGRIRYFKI

[3] = system: A549 human lung cells; assay: Binding to immobilised A549 human lung cells (microtitre plate); assay type: cell-based; settings: 10 µg/ml; detection with antiserum against RP15 (1:100), absorbance 450 nm; eight replicates
Experimental: Freshly grown A549 cells were immobilised in 96-well microtitre plates as described in[17]. Immobilised A549 cells were incubated with 10 µg/ml of either RP15, P1-30, or P1-15 and binding affinity was measured with antiserum raised against RP15 (1:100) as described above. Absorbance detection at 450 nm is the same as described above.

[4] = system: Glu-plasminogen; assay: Microtitre plate binding assay (ELISA), plasminogen; design: species or system human; settings: 15 µg/ml of C-terminal P1 fragments bound to wells, absorbance 450 nm (620 nm reference), eight replicates, P1-15 with N-terminal biotin tag
Experimental: (§1) Human proteins used for ELISA include: plasma fibrinogen (Code: F3879), plasma fibronectin (Code: 11051407001), Glu-plasminogen (Code: P7999), vitronectin (Code: SRP3186), laminin (Code: L6274), and lactoferrin (Code: L1294) which were all supplied by Sigma.
(§2) Binding affinity measured by ELISA was performed as described previously. Recombinant protein RP15 was produced as described[55] and both C-terminal peptides were synthesised by Chempeptide Limited (China). P1-30 (^1597[…]^1627) without any tags, but P1-15 (^1613PGAPKPPVQPPKKPA^1627) was sequenced with an N-terminal biotin tag.
(§3) 15 µg/ml of C-terminal P1 fragments were bound to wells and incubated with different host proteins. Wells were then incubated with different antiserum raised against the different host proteins at the following dilutions (all from Sigma): anti-fibrinogen 1:3000, anti-fibronectin 1:1000, anti-plasminogen: 1:2500, anti-vitronectin 1:5000, anti-laminin 1:750, and anti-lactoferrin 1:5,000. These incubations were followed by incubations with anti-rabbit IgG (Dako) or anti-goat IgG (both 1:2,000). Detection was measured by adding Tetramethylbenzidine (Sigma) followed by 1 M HCl, and absorbance was measured at 450 nm (620 nm as reference).

[5] = system: plasma fibronectin; assay: Microtitre plate binding assay (ELISA), fibronectin; design: species or system human; settings: 15 µg/ml of C-terminal P1 fragments bound to wells, absorbance 450 nm (620 nm reference), eight replicates, P1-15 with N-terminal biotin tag
Experimental: as §1, §2, §3

[6] = system: plasma fibrinogen; assay: Microtitre plate binding assay (ELISA), fibrinogen; design: species or system human; settings: 15 µg/ml of C-terminal P1 fragments bound to wells, absorbance 450 nm (620 nm reference), eight replicates, P1-15 with N-terminal biotin tag
Experimental: as §1, §2, §3

[7] = system: vitronectin; assay: Microtitre plate binding assay (ELISA), vitronectin; design: species or system human; settings: 15 µg/ml of C-terminal P1 fragments bound to wells, absorbance 450 nm (620 nm reference), eight replicates, P1-15 with N-terminal biotin tag
Experimental: as §1, §2, §3

[8] = system: laminin; assay: Microtitre plate binding assay (ELISA), laminin; design: species or system human; settings: 15 µg/ml of C-terminal P1 fragments bound to wells, absorbance 450 nm (620 nm reference), eight replicates, P1-15 with N-terminal biotin tag
Experimental: as §1, §2, §3

[9] = system: lactoferrin; assay: Microtitre plate binding assay (ELISA), lactoferrin; design: species or system human; settings: 15 µg/ml of C-terminal P1 fragments bound to wells, absorbance 450 nm (620 nm reference), eight replicates, P1-15 with N-terminal biotin tag
Experimental: as §1, §2, §3

[10] = system: panel of host proteins; assay: Microtitre binding assays, panel of host proteins; design: species or system human; settings: 15 µg/ml of C-terminal P1 fragments bound to wells
Experimental: as §1, §2, §3

[11] = target: T3, Human lactoferrin (human, UniProt P02788 20-710); assay: ELISA; 15 µg/ml of C-terminal P1 fragment bound to wells, incubated with host protein at several concentrations; detected with antiserum against the host protein, absorbance at 450 nm; settings: both partners purified
T3 construct: lactoferrin, human, Sigma L1294; source: bought: Sigma (Code L1294)
T3 sequence (P02788 20-710): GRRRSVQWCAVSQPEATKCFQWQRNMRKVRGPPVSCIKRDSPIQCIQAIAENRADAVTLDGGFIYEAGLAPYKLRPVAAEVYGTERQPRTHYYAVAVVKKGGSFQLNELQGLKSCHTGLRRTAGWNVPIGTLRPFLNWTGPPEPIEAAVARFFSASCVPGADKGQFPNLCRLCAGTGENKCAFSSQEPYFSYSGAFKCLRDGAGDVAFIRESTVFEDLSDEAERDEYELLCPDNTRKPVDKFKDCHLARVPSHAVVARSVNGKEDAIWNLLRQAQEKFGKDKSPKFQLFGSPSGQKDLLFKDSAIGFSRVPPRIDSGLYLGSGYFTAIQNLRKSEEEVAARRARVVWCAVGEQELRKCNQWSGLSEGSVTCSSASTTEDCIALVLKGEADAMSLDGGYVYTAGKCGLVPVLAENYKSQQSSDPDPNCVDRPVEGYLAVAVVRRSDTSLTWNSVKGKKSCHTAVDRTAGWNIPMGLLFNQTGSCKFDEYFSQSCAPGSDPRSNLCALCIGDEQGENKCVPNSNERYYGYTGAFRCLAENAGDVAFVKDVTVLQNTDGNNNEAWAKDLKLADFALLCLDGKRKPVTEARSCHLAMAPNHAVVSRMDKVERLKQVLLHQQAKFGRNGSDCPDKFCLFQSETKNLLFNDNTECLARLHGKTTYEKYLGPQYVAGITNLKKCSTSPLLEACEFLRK

T1 sequence (P04004 20-478): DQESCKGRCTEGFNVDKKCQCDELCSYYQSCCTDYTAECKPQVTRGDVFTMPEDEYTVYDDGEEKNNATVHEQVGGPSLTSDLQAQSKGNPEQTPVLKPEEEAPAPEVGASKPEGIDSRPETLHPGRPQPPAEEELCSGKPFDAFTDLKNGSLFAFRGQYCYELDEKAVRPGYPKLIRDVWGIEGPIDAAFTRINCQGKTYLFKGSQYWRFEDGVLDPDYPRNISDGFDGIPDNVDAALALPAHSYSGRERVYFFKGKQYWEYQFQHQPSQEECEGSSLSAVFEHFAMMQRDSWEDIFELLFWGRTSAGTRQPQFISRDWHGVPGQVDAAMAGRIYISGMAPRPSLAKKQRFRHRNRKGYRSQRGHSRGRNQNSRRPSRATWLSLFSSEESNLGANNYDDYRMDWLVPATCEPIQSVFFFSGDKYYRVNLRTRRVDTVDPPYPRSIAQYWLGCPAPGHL

B1: P1-15, synthetic C-terminal peptide of P1 adhesin with N-terminal biotin (peptide)
peptide: Biotin-PGAPKPPVQPPKKPA
notes: P1 adhesin (Mpn141) of M. pneumoniae, residues 1613-1627; also called C-terminal 15 amino acids; source: synthetic peptide (Chempeptide Limited, China)
**Q.** Does B1 bind [1]?
**A.** Result: binds

B2: P1-30, synthetic C-terminal peptide of P1 adhesin (peptide)
peptide: TSAAKPGAPRPPVPPKPGAPKPPVQPPKKPA
notes: P1 adhesin (Mpn141) of M. pneumoniae, residues 1597-1627; without any tags; also called C-terminal 30 amino acids; P1 tail; source: synthetic peptide (Chempeptide Limited, China)
**Q.** For B2, which Kd [2] is on record?
**A.** Its Kd is 2400 ± 700 nM.

B3: rPdhB: Recombinant pyruvate dehydrogenase subunit B of M. pneumoniae (positive control) (protein, UniProt P75391 1-327, looked up)
Pyruvate dehydrogenase E1 …: MSKTIQANNIEALGNAMDLALERDPNVVLYGQDAGFEGGVFRATKGLQKKYGEERVWDCPIAEAAMAGIGVGAAIGGLKPIVEIQFSGFSFPAMFQIFTHAARIRNRSRGVYTCPIIVRMPMGGGIKALEHHSETLEAIYGQIAGLKTVMPSNPYDTKGLFLAAVESPDPVVFFEPKKLYRAFRQEIPADYYTVPIGQANLISQGNNLTIVSYGPTMFDLINMVYGGELKDKGIELIDLRTISPWDKETVFNSVKKTGRLLVVTEAAKTFTTSGEIIASVTEELFSYLKAAPQRVTGWDIVVPLARGEHYQFNLNARILEAVNQLLK
**Q.** B3 was tested. Which “binding to immobilised A549 cells” value [3] did it give?
**A.** The value was “bound immobilised A549 cells”.

B4: Recombinant protein RP15 (C-terminal region of P1 adhesin) (domain or fragment)
chain: DYVLPLAITVPIVVIVLSVTLGLAIGIPMHKNKQALKAGFALSNQKVDVLTKAVGSVFKEIINRTGISQAPKRLKQTSAAKPGAPRPPVPPKPGAPKPPVQPPKKPA
notes: P1 adhesin (Mpn141) of M. pneumoniae, residues 1521-1627
**Q.** What does the source list for B4?
**A.** binding to plasminogen [4]: bound lactoferrin, vitronectin, plasminogen; binding to plasminogen ([4]; listed as RP-15): bound it more strongly; binding to fibronectin [5]: bound lactoferrin, vitronectin, plasminogen, fibronectin; binding to fibronectin ([5]; listed as RP-15): bound fibronectin and fibrinogen more strongly than P1-30; binding to fibrinogen [6]: bound lactoferrin, vitronectin, plasminogen, fibronectin, and fibrinogen; binding to fibrinogen ([6]; listed as RP-15): bound fibronectin and fibrinogen more strongly than P1-30; binding to vitronectin [7]: bound lactoferrin, vitronectin; binding to laminin [8]: Only M. pneumoniae cells bound laminin; binding to lactoferrin [9]: bound lactoferrin; binding to immobilised A549 cells [3]: bound immobilised A549 cells; also recorded: observed to bind immobilised A549 cells; binding to panel of host molecules [10]: bind a range of host molecules in a dose dependent manner; also recorded: most consistent and most diverse binding capabilities; binding result [1]: binds; binding result [11]: binds
